Source: patent publication US20230057177A1 (CULLGEN SHANGHAI, published 2023)

B1: Peptide 1 (SEQ ID NO: 1) (peptide)
peptide: ILPKVLHKRTLGLS
notes: No terminal modifications are stated for the tested peptide

Target: T1, His-DDB1 (human DNA damage-binding protein 1 with N-terminal His6-tag) (human, UniProt Q16531 1-1140)
T1 construct: Vector-derived residues between the His6-tag and DDB1 (pFastBacHTB) are not described; also called His-DDB1 proteins
Assay: SPR (Biacore), His-DDB1 amine-coupled on CM5 chip, steady state affinity fit; graded cell, table key: B: Kd 20-100 uM (lower end of the range)

T1 sequence (Q16531 other isoform, or with tags, fused parts or gaps limits assumed): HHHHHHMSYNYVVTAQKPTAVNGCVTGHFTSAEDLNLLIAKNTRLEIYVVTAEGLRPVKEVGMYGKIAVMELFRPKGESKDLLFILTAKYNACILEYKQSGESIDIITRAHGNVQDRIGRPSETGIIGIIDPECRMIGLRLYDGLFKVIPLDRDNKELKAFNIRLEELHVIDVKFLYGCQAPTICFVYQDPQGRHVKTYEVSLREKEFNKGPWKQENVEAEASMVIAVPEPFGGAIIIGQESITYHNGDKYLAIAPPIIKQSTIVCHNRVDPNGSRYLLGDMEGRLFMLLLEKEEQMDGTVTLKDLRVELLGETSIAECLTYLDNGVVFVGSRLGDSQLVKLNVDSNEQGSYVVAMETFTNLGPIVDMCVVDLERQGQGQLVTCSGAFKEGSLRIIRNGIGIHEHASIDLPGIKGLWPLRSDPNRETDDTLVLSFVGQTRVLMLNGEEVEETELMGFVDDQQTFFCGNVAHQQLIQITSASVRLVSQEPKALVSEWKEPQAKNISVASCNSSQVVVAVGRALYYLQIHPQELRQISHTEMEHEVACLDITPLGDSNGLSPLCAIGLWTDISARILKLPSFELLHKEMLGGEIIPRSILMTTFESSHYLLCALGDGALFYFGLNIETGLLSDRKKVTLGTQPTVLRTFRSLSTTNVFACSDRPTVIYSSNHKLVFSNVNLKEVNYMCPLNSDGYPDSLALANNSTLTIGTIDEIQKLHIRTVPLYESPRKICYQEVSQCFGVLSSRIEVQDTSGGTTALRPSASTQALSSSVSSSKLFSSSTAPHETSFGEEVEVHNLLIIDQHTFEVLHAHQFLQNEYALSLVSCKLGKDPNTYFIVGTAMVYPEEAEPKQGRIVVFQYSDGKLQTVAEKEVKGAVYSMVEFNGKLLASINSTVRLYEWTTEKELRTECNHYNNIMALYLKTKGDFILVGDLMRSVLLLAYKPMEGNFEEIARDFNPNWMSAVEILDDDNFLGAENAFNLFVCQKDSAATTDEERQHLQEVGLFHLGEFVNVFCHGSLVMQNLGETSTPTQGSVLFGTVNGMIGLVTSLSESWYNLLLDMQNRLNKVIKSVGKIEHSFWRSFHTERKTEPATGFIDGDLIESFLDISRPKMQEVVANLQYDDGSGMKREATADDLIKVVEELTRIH

SRLNRRASF [Peptide 7 (SEQ ID NO: 7)] was tested. Which Kd did it give?
The Kd was 20 to 100 µM.

Target: T1, His-DDB1 (human DNA damage-binding …)
Assay: SPR (Biacore), His-DDB1 amine-coupled on CM5 chip, steady state affinity fit; graded cell, table key: A: Kd < 20 uM

How did the Kd turn out when KVLHKRTLG [Peptide 5 (SEQ ID NO: 5)] was run?
The Kd was under 20 µM.

How did the Kd turn out when ILPKVWHKRELGLS [Peptide 2 (SEQ ID NO: 2)] was run?
The Kd was under 20 µM.

B1 was tested. Which Kd did it give?
Its Kd is under 20 µM.

Which Kd does the source give for ILPKVLHKRTLGL [Peptide 3 (SEQ ID NO: 3)] here?
The Kd was under 20 µM.

How did the Kd turn out when ILPKVLHKRTFGL [Peptide 4 (SEQ ID NO: 4)] was run?
Its Kd is under 20 µM.

NFTSRLNRRASFP [Peptide 6 (SEQ ID NO: 6)] was tested. Which Kd did it give?
The Kd was under 20 µM.
